{"source": "patent US20060160174A1", "about": "(published 2006)", "binders": {"B1": {"name": "L49-sFv-bL triple mutant FP990 (K H39 Q, F H82B S, N H91 Y) (scFv)", "scFv": "MEVQLQESGPSLVKPSQTLSLTCSVTGDSITSGYWNWIRQFPGNKLEYMGYISDSGITYYNPSLKSRISITRDTSKNQYYLQLNSVTAEDTATYYCARRTLATYYAMDYWGQGTSVTVSSGSTSGSGKPGSGEGSTKGDFVMTQTPLSLPVSLGDQASISCRASQSLVHSNGNTYLHWYLQKPGQSPKLLIYRVSNRFSGVPDRFSGSGSGTDFTLKISRVEAEDLGVYFCSQSTHVPPTFGGGTKLEIKRTPVSEKQLAEVVANTITPLMKAQSVPGMAVAVIYQGKPHYYTFGKADIAANKPVTPQTLFELGSISKTFTGVLGGDAIARGEISLDDAVTRYWPQLTGKQWQGIRMLDLATYTAGGLPLQVPDEVTDNASLLRFYQNWQPQWKPGTTRLYANASIGLFGALAVKPSGMPYEQAMTTRVLKPLKLDHTWINVPKAEEAHYAWGYRDGKAVRVSPGMLDAQAYGVKTNVQDMANWVMANMAPENVADASLKQGIALAQSRYWRIGSMYQGLGWEMLNWPVEANTVVETSFGNVALAPLPVAEVNPPAPPVKASWVHKTGSTGGFGSYVAFIPEKQIGIVMLANTSYPNPARVEAAYHILEALQ"}, "B2": {"name": "reverse orientation triple mutant FP999 (K H39 Q, F H82B S, N H91 Y, bL-L49-sFv orientation) (scFv)", "chain": "TPVSEKQLAEVVANTITPLMKAQSVPGMAVAVIYQGKPHYYTFGKADIAANKPVTPQTLFELGSISKTFTGVLGGDAIARGEISLDDAVTRYWPQLTGKQWQGIRMLDLATYTAGGLPLQVPDEVTDNASLLRFYQNWQPQWKPGTTRLYANASIGLFGALAVKPSGMPYEQAMTTRVLKPLKLDHTWINVPKAEEAHYAWGYRDGKAVRVSPGMLDAQAYGVKTNVQDMANWVMANMAPENVADASLKQGIALAQSRYWRIGSMYQGLGWEMLNWPVEANTVVETSFGNVALAPLPVAEVNPPAPPVKASWVHKTGSTGGFGSYVAFIPEKQIGIVMLANTSYPNPARVEAAYHILEALQMHGTKLMEVQLQESGPSLVKPSQTLSLTCSVTGDSITSGYWNWIRQFPGNKLEYMGYISDSGITYYNPSLKSRISITRDTSKNQYYLQLNSVTAEDTATYYCARRTLATYYAMDYWGQGTSVTVSSGSTSGSGKPGSGEGSTKGDFVMTQTPLSLPVSLGDQASISCRASQSLVHSNGNTYLHWYLQKPGQSPKLLIYRVSNRFSGVPDRFSGSGSGTDFTLKISRVEAEDLGVYFCSQSTHVPPTFGGGTKLEIKR", "notes": "also called bL-L49-scFv"}, "B3": {"name": "L49-sFv-bL double mutant FP960 (F H82B S, N H91 Y) (scFv)", "scFv": "B1 scFv with Q40K"}, "B4": {"name": "L49-sFv-bL double mutant FP965 (K H39 Q, N H91 Y) (scFv)", "scFv": "B1 scFv with S85F"}, "B5": {"name": "parental L49-sFv-bL fusion protein FP95 (scFv)", "scFv": "B1 scFv with Q40K, S85F, Y95N", "notes": "also called L49-scFv-bL; parental molecule"}, "B6": {"name": "940 (scFv)", "chain": "B1 scFv with Q40K, Y79A, S85F, Y95N", "notes": "also called FP940; L49-sFv-bL mutant FP940 (Y H78 A)"}, "B7": {"name": "L49-sFv-bL mutant FP950 (N H91 Y) (scFv)", "scFv": "B1 scFv with Q40K, S85F"}, "B8": {"name": "L49-sFv-bL mutant FP945 (F H82B S) (scFv)", "scFv": "B1 scFv with Q40K, Y95N"}, "B9": {"name": "L49-sFv-bL mutant FP930 (K H39 Q) (scFv)", "scFv": "B1 scFv with S85F, Y95N"}, "B10": {"name": "935 (scFv)", "chain": "B1 scFv with Q40K, Y48W, S85F, Y95N", "notes": "also called FP935; L49-sFv-bL mutant FP935 (Y H47 W)"}}, "note": "Numbering of substitutions follows the chain as printed. Names and notes keep the numbering of the source.", "data": [{"target": "T1, p97 antigen on human melanoma H3677 cells (human, UniProt P08582 20-709)", "T1 sequence": "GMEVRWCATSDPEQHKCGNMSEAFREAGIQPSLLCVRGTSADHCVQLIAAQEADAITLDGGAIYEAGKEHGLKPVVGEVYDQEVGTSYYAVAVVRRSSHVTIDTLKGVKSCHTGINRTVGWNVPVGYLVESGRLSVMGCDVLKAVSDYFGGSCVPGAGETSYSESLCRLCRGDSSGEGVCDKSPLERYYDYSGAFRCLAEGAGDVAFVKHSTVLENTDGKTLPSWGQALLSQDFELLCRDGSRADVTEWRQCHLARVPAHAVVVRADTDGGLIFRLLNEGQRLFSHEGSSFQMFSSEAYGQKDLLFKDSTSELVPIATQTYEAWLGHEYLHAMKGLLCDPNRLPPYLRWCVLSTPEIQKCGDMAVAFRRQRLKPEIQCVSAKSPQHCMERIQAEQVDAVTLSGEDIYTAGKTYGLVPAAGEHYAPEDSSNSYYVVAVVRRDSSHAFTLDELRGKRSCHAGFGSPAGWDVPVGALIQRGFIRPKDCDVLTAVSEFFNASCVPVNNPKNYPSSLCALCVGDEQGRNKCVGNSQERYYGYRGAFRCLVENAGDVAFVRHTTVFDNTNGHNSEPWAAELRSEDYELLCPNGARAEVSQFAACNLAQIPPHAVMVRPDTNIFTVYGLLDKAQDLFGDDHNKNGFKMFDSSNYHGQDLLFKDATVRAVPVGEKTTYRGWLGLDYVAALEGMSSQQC", "assay": "cell-based or functional assay", "units": {"IC50 of prodrug C-Mel on H3677 melanoma cells pre-treated with 10 nM fusion protein, unbound material washed off; cell viability by alamarBlue": "nM"}, "values": [{"binder": "B1", "IC50 of prodrug C-Mel on H3677 melanoma cells pre-treated with 10 nM fusion protein, unbound material washed off; cell viability by alamarBlue": 5000}, {"binder": "B2", "IC50 of prodrug C-Mel on H3677 melanoma cells pre-treated with 10 nM fusion protein, unbound material washed off; cell viability by alamarBlue": 5000}]}, {"target": "T2, soluble p97 (amino acids 20-710 of human p97 precursor), 6x his tag (human, UniProt P08582 20-710)", "T2 construct": "range 20-710; also called p97 melanotransferrin; recombinant p97; not shown: 6x his tag from vector pSecTag2", "T2 sequence": "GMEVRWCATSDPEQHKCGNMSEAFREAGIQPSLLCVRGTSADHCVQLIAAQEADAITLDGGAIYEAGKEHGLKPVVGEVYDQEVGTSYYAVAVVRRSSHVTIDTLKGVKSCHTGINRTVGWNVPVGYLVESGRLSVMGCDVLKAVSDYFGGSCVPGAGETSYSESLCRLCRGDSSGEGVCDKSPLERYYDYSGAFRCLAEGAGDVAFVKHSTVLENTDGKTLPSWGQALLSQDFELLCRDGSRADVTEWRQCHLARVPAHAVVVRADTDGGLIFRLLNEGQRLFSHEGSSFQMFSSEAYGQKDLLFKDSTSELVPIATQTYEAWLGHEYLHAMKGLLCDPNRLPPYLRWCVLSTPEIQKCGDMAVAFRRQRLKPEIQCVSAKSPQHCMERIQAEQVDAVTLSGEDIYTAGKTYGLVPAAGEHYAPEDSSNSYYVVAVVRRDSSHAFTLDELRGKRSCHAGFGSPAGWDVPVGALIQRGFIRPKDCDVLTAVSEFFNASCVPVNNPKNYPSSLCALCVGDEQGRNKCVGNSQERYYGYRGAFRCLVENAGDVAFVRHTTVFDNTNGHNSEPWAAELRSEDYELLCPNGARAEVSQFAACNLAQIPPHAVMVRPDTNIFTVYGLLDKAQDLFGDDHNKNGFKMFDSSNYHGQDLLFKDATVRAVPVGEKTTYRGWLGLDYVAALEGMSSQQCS", "assay": "SEC binding assay with purified p97 (discussion of the example)", "units": {"percent of purified protein bound to antigen": "%"}, "values": [{"binder": "B3", "percent of purified protein bound to antigen": 100}, {"binder": "B4", "percent of purified protein bound to antigen": 100}, {"binder": "B1", "percent of purified protein bound to antigen": 100}]}, {"target": "T2, soluble p97 (amino acids 20-710 of …)", "assay": "SPR, Biacore 2000, 25 C; p97 immobilised on CM5 chip, scFv fusion injected; 1:1 model", "units": {"Kd": "nM", "koff": "s⁻¹", "kon": "M⁻¹ s⁻¹"}, "values": [{"binder": "B5", "Kd": 2.31, "koff": 0.0007, "kon": 304000}, {"binder": "B3", "Kd": 1.75, "koff": 0.000638, "kon": 364000}, {"binder": "B4", "Kd": 1.91, "koff": 0.000765, "kon": 400000}, {"binder": "B1", "Kd": 1.75, "koff": 0.000782, "kon": 448000}, {"binder": "B2", "Kd": 1.71, "koff": 0.000575, "kon": 337000}]}, {"target": "T2, soluble p97 (amino acids 20-710 of …)", "assay": "solid-phase binding assay on wells coated with soluble p97; crude refold normalised on beta-lactamase activity; nitrocefin read-out, OD 490 nm [a]", "values": [{"binder": "B6", "binding result": "binds"}, {"binder": "B7", "binding result": "binds"}, {"binder": "B8", "binding result": "binds"}, {"binder": "B9", "binding result": "binds"}, {"binder": "B10", "binding result": "binds"}]}]}
